Reference: article PMC6744478, “Development of R7BP inhibitors through cross-linking coupled mass spectrometry and integrated modeling” (Communications Biology, 2019)

T1: RGS7/Gβ5 duplex (human, UniProt P49802 1-495; O14775-2 1-353)
T1 construct: RGS7 (regulator of G protein signaling 7), human; cDNA in pCMV3 vector from Sino Biological; holds the loop RGS7-LP21 at aa230–250; Gβ5 (GNB5), human, short form; also called RGS7 duplex; RGS7/HIS-Gβ5; source: Expi293 HEK cells, transfected, purified; not shown: 6x HIS (named on the purified RGS7/HIS-Gβ5 of the Western blot)
T1 sequence (looked up) 1: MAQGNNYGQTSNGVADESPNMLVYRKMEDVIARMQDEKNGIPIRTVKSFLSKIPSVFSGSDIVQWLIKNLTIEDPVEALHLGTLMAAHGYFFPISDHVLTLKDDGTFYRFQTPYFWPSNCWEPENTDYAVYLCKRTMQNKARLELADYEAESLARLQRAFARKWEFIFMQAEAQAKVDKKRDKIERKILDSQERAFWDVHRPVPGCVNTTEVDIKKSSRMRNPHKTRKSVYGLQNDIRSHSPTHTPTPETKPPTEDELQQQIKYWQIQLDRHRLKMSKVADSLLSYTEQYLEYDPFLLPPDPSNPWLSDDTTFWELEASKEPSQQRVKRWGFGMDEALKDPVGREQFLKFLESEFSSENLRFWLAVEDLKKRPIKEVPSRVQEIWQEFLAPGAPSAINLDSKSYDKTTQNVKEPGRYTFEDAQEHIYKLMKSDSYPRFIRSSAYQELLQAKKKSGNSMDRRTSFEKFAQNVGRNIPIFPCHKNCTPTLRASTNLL
T1 sequence (looked up) 2: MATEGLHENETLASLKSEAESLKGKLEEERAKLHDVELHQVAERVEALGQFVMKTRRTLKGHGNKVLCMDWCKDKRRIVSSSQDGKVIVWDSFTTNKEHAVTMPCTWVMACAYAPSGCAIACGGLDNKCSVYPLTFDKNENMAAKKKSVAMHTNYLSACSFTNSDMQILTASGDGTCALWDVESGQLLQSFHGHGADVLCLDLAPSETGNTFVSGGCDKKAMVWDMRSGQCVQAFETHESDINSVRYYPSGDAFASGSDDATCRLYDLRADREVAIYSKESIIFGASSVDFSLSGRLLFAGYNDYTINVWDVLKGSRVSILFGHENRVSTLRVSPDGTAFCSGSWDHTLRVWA

T2: RGS6/Gβ5 duplex (human, UniProt P49758 1-472; O14775-2 1-353)
T2 construct: RGS6 (regulator of G protein signaling 6), human; Gβ5 (GNB5), human, short form; Only GNB5 constructs with an N-terminal 6x HIS or TS tag are described; also called RGS6 duplex; source: Expi293 HEK cells, transfected, purified
T2 sequence (looked up) 1: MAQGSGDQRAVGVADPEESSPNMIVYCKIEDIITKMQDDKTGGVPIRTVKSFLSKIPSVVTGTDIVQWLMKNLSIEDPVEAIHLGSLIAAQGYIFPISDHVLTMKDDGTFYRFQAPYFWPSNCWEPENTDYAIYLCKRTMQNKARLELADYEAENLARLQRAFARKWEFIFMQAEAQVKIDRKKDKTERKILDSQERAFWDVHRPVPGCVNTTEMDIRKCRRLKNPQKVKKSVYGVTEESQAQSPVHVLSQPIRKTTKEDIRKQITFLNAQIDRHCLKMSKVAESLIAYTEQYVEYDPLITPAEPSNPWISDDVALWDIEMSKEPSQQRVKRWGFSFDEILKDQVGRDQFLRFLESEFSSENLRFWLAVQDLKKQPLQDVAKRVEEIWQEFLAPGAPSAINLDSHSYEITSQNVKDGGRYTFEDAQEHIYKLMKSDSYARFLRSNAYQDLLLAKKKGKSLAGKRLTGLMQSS
T2 sequence (looked up) 2: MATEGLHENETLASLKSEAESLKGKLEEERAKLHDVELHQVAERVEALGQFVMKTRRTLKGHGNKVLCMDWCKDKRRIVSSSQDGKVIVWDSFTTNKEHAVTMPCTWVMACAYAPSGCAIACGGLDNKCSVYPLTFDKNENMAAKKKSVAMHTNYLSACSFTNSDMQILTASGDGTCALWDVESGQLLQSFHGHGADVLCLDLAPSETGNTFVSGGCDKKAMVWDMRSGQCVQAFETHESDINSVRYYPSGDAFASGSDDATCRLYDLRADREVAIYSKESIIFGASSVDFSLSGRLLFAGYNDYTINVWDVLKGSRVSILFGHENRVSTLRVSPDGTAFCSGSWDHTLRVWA

T3: RGS9/Gβ5 duplex (human, UniProt O75916 1-674; O14775-2 1-353)
T3 construct: RGS9-2 (regulator of G protein signaling 9, splice form 2), human; cDNA in pCMV3 vector from Sino Biological; Gβ5 (GNB5), human, short form; also called RGS9 duplex; RGS9-2/Gβ5; source: Expi293 HEK cells, transfected, purified
T3 sequence (looked up) 1: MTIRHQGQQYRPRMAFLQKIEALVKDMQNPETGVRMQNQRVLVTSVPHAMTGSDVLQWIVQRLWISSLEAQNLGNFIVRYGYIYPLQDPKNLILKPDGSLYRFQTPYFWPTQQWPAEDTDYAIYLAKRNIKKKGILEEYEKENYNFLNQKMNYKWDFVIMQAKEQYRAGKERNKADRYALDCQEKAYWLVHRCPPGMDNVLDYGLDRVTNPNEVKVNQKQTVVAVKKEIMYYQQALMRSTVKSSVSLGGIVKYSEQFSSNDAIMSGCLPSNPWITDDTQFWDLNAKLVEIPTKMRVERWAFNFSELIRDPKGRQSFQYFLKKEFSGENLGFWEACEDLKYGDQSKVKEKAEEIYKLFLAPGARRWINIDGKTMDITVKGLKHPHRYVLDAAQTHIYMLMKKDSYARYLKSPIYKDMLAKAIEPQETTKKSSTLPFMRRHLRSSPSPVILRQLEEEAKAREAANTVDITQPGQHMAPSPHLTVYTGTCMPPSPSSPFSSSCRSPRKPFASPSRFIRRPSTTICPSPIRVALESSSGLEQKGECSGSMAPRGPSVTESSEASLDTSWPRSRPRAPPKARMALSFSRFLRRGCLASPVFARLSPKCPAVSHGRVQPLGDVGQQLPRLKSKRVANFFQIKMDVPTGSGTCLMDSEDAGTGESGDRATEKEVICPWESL
T3 sequence (looked up) 2: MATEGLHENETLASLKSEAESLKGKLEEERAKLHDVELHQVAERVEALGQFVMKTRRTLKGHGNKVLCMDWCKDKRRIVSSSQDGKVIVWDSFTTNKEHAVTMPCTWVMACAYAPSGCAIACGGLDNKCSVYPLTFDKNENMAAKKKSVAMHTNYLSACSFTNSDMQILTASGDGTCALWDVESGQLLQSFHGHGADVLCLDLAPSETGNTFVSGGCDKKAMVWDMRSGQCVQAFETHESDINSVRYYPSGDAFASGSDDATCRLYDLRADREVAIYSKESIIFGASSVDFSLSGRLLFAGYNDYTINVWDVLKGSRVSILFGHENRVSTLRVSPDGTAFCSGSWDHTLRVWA


Experiments:
Experiment in all cases: SPR; OpenSPR (Nicoya), Streptavidin sensor chip; tagged R7BP variant as ligand, purified R7-RGS/Gβ5 duplex as analyte at 3–5 concentrations; PBS pH 7.4, 0.005% Tween20; 25 µL per minute; 1:1-binding model; two independent experiments
Conditions in all cases: both partners purified
RGS7/Gβ5 duplex = target: T1, RGS7/Gβ5 duplex
RGS6/Gβ5 duplex = target: T2, RGS6/Gβ5 duplex
RGS9/Gβ5 duplex = target: T3, RGS9/Gβ5 duplex
RGS11/Gβ5 duplex = target: T4, RGS11/Gβ5 duplex (human, UniProt O94810 1-467; O14775-2 1-353)
T4 construct: RGS11 (regulator of G protein signaling 11), human; Gβ5 (GNB5), human, short form; also called RGS11 duplex; source: Expi293 HEK cells, transfected, purified
T4 sequence (O94810 whole entry, one chain of several): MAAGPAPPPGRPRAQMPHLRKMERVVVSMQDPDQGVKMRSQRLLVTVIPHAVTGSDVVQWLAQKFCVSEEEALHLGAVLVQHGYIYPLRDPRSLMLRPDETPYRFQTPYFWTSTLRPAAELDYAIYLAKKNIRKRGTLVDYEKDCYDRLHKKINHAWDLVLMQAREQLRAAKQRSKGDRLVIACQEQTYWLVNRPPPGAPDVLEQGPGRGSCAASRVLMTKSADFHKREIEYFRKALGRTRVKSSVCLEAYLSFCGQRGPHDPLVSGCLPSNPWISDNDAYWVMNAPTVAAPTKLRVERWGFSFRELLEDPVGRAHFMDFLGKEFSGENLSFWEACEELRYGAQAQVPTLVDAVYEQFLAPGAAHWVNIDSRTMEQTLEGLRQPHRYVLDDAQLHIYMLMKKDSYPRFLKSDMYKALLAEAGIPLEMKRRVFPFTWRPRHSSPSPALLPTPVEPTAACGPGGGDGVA

| Kd (RGS7/Gβ5 duplex) | Kd (RGS6/Gβ5 duplex) | Kd (RGS9/Gβ5 duplex) | Kd (RGS11/Gβ5 duplex) | Binder |
| --- | --- | --- | --- | --- |
| 9.9 nM | – | – | – | R7BPΔC (domain or fragment, human, UniProt Q6MZT1 1-222, looked up, R7BP (RGS7BP), human, C-terminus aa223–257 removed (the mutated cysteines 252 and 253 lie in the removed stretch); Its tag is surmised from its use as SPR ligand; also called R7BP with the C-terminus (aa223–257) removed; source: Expi293 HEK cells, transfected, purified) MSSAPNGRKKRPSRSTRSSIFQISKPPLQSGDWERRGSGSESAHKTQRALDDCKMLVQEFNTQVALYRELVISIGDVSVSCPSLRAEMHKTRTKGCEMARQAHQKLAAISGPEDGEIHPEICRLYIQLQCCLEMYTTEMLKSICLLGSLQFHRKGKEPGGGTKSLDCKIEESAETPALEDSSSSPVDSQQHSWQVSTDIENTERDMREMKNLLSKLRETMPL |
| 19 nM | 2.3 nM | 1.5 nM | 2.3 nM | R7BP-FL (full-length R7BP; construct R7BP-TEV-TS) (natural protein, human, UniProt Q6MZT1 1-257, looked up, last residue 257 by the printed aa223–257; palmitoylation site removed; also called RGS7BP; source: Expi293 HEK cells, transfected, purified (StrepTrap HP; SEC if needed); not shown: Twin-Strep (after a TEV protease site), C-terminal, kept) MSSAPNGRKKRPSRSTRSSIFQISKPPLQSGDWERRGSGSESAHKTQRALDDCKMLVQEFNTQVALYRELVISIGDVSVSCPSLRAEMHKTRTKGCEMARQAHQKLAAISGPEDGEIHPEICRLYIQLQCCLEMYTTEMLKSICLLGSLQFHRKGKEPGGGTKSLDCKIEESAETPALEDSSSSPVDSQQHSWQVSTDIENTERDMREMKNLLSKLRETMPLPLKNQDDSSLLNLTPYPLVRRRKRRFFGLSSLISS |
| 1.8 nM | – | – | – | R7BPΔN (domain or fragment, human, UniProt Q6MZT1 22-257, looked up, R7BP (RGS7BP), human, lacking the N-terminal 21 amino acids (R7BP-N21); C252S, C253S are stated for all R7BP constructs; Its tag is surmised from its use as SPR ligand; also called truncated R7BP derivative lacking the N-terminal 21 amino acids; source: Expi293 HEK cells, transfected, purified) QISKPPLQSGDWERRGSGSESAHKTQRALDDCKMLVQEFNTQVALYRELVISIGDVSVSCPSLRAEMHKTRTKGCEMARQAHQKLAAISGPEDGEIHPEICRLYIQLQCCLEMYTTEMLKSICLLGSLQFHRKGKEPGGGTKSLDCKIEESAETPALEDSSSSPVDSQQHSWQVSTDIENTERDMREMKNLLSKLRETMPLPLKNQDDSSLLNLTPYPLVRRRKRRFFGLSSLISS |
